“And” between values parts separate entries of the source, which are not always exact repeats. Equal values may be shown once.
Assays:
[1] = target: human lactoferrin (human); assay: SPR
[2] = target: human lactoferrin (human)
[3] = target: human lactoferrin (human); assay: native gel or EMSA

Substance	Kd [1]	percent of input bound [2] [%]	koff [1] [s⁻¹]	kon [1] [M⁻¹ s⁻¹]	stoichiometry N [3]
SARS-CoV-2 spike protein (S-protein), ancestral Wuhan-like variant (from UniProt P0DTC2 14-1213) (natural protein)	0.00432 µM	60	–	–	–
receptor-binding domain of the SARS-CoV-2 S-protein, ancestral Wuhan-like variant (from UniProt P0DTC2) (domain or fragment)	1.26 µM and 1.31 µM	30	0.308	245000	1

Source: paper PMC11357225
